Experimental data as given in patent US11466286B2, “Methods and compositions for conferring and/or enhancing herbicide tolerance using protoporphyrinogen oxidase or variant thereof” (FarmHannong Co., Ltd., priority 2016, dated 2022).
Substitutions are numbered along the chain they refer to. Numbers in names are those of the source.

B1: CyPPO10 F360M: CyPPO10 (SEQ ID NO: 2) PPO variant (protein)
chain: MIEVDVAIVGGGLSGLSVAWRLQRSAPHYSGVLLEASDRLGGNITTQAAEGFVWELGPNSFAPTPALLQLIAEVGLHSELIRGDRHLPRYIYWRGELYPLEPTRPLALATSNLLSPWGKVRAALGALGFVPPYLGSGDESVDSFFRRHLGQEVAERLVAPFVSGVYAGDPQQLSAAAAFRRIAQLEKLGGSLIAGALRLRRQQPPQPKPPAQVQMRPGELGSFREGLAALPRAIAQQLKAPLHLQTPVEAITPEPKGGYLLRSGEQTWHARSVVLATPAYQTAELVAPFQPAIARALATIPYPTVACVVLAYPAGLGRSVRPGFGVLVPRGQGIRTLGTIWSSCLFPQRTPAGWQVFTSMIGGATDPDLASLREEAIVEQVQQDLTRLLDLPAAKARLLGMKVWRRAIPQYIVGYPQQWQQVTHALTQTPGLFLCSNYAEGVALGDRVEHGNRTAAAVAAYLAGGQS
modifications: Synthetic CyPPO10
B2: CyPPO10 A167C: CyPPO10 (SEQ ID NO: 2) PPO variant (protein)
chain: B1 chain with A167C, M360F
modifications: Synthetic CyPPO10
B3: CyPPO10 V305M: CyPPO10 (SEQ ID NO: 2) PPO variant (protein)
chain: B1 chain with V305M, M360F
modifications: Synthetic CyPPO10
B4: CyPPO10 F360C: CyPPO10 (SEQ ID NO: 2) PPO variant (protein)
chain: B1 chain with M360C
modifications: Synthetic CyPPO10
B5: CyPPO10 F360L: CyPPO10 (SEQ ID NO: 2) PPO variant (protein)
chain: B1 chain with M360L
modifications: Synthetic CyPPO10
B6: CyPPO10 F360I: CyPPO10 (SEQ ID NO: 2) PPO variant (protein)
chain: B1 chain with M360I
modifications: Synthetic CyPPO10
B7: CyPPO13 F373I: CyPPO13 (SEQ ID NO: 4) PPO variant (protein)
chain: MNPATPEPLNAEVVVIGAGISGLTLAWRLQQGLSARGGSPQAVLLAEASSRVGGCISTQSKDGYRWEEGPNSFTPTPALLNLIAEVGLTDQLVLADAKLPRYIYWEGALLPVPLSPAAALGSRLLSVGGKLRALQGLLGFVPPPPGHEETVRQFFRRQLGSEVAERLVEPFTSGVYAGDPDQLSAVAAFPRVAGLEERYGSLFAGALQALRQRPQPSPAAIQPPPKRGQLGNLRQGLQQLPEALAQKLGDSLRLGWRALQLKRAGELYWVGFETPEGSRWVAARQVVLALPAYEAAALLQELNPPASQLLAEILYPPVAVVALAYPQEALPQPLRGFGHLIPRSQGLRTLGTIWASCLFPERAPQGYHSFLSILGGATDAALARRRGIPPIPALSPEERAQIAHAELSQVLLTRRAEPVYLGERLWPRAIPQYTLGHRQRIAQVQAHLASQTPGIWVCANYLDGVALGDCVRRAEALAQQLLSQV
modifications: Synthetic CyPPO13
B8: CyPPO13 A177L + F373I: CyPPO13 (SEQ ID NO: 4) PPO variant (protein)
chain: B7 chain with A177L
modifications: Synthetic CyPPO13
B9: CyPPO13 A177C: CyPPO13 (SEQ ID NO: 4) PPO variant (protein)
chain: B7 chain with A177C, I373F
modifications: Synthetic CyPPO13
B10: CyPPO13 F373C: CyPPO13 (SEQ ID NO: 4) PPO variant (protein)
chain: B7 chain with I373C
modifications: Synthetic CyPPO13
B11: CyPPO13 F373M: CyPPO13 (SEQ ID NO: 4) PPO variant (protein)
chain: B7 chain with I373M
modifications: Synthetic CyPPO13
B12: CyPPO13 A177L + F373L: CyPPO13 (SEQ ID NO: 4) PPO variant (protein)
chain: B7 chain with A177L, I373L
modifications: Synthetic CyPPO13

How the values were obtained:
[1] = system: A. thaliana; assay: Seed germination of A. thaliana transformants on ½ MS media containing herbicides; format: in vivo, Arabidopsis thaliana; conditions: T3 lines; 25 μM glufosinate, 25 μM glufosinate+70 nM tiafenacil, or 25 μM glufosinate+30 nM tiafenacil+40 nM saflufenacil; 7 days after sowing
From the text: T3 generation seeds of each transformant were sown in ½ MS media containing herbicides. Col-0 ecotype (wild type Arabidopsis) seeds were used as a control. The kinds of herbicides and concentration are as follows:
In FIGS. 31a to 31c, 10-3 refers to CyPPO10 wild type, 10FM-4-7 to the CyPPO10 F360M transgenic line, 10FL-1-9 to the CyPPO10 F360L transgenic line, 10FC-3-5 to the CyPPO10 F360C transgenic line, 10AC-5-4 to the CyPPO10 A167C transgenic line, 13-1 to CyPPO13 wild type, 13FM-3-1 to the CyPPO13 F373M transgenic line, 13FC-1-1 to the CyPPO13 F373C transgenic line, 13FI-2-1 to the CyPPO13 F373I transgenic line, 13AC-1-3 to the CyPPO13 A177C transgenic line, CyPPO13_ALFL to the CyPPO13 A177L+F373L transgenic line, and CyPPO13_ALFI to the CyPPO13 A177L+F373I transgenic line, respectively.

[2] = system: CyPPO10; assay: PPO enzyme activity and IC50 by herbicides, CyPPO10 wild type and variants (MBP-PPO fusion); format: biochemical, Thermosynechococcus elongatus BP-1; conditions: PPO enzyme activity of CyPPO10 protein, wild type = 100
Summary of the method: (§1)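 Activity was read as protoporphyrin IX fluorescence (405/633 nm), calibrated with a protoporphyrin IX standard curve, after 30 min at room temperature with 50 μM substrate under mineral oil. The buffer was 50 mM Tris-Cl pH 8.0 with glucose oxidase/catalase and a 30 min preincubation. Enzymes were purified MBP-PPO fusions of CyPPO10 or CyPPO13, wild type and variants, expressed in E. coli.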

[3] = system: PPO-deficient BT3 E. coli (ΔPPO); assay: Herbicide tolerance of PPO-deficient BT3 E. coli transformed with CyPPO10/CyPPO13 wild type or mutant genes on herbicide-containing LB agar; format: cell-based; parameters: key: the level of herbicide tolerance of the wild type was represented by “−”; if higher, adding “+” to the max “+++++”; if higher, adding “+” to the max “+++++”; if higher, adding “+” to the max “+++++”; if higher, adding “+” to the max “+++++”; if higher, adding “+” to the max “+++++”; conditions: BT3 E. coli with CyPPO10 gene; relative to CyPPO10 wild type
From the text: In order to enhance PPO-inhibiting herbicide tolerance of CyPPO10 and CyPPO13, the amino acids interacting with herbicide, as identified in the Example 3, were mutated. After PPO-deficient BT3 E. coli (ΔPPO) was transformed with a PPO gene having such mutation, and then cultured with PPO-inhibiting herbicide, to observe the growth of transformed E. coli, as follows:
The pET303-CyPPO10 or pET303-CyPPO13 plasmids prepared in the Example 4, and plasmids containing each mutant gene, were transformed into BT3 competent cell by a heat shock method, and cultured in a LB agar medium containing ampicillin (100 μg/ml).
For seed culture of BT3 transformants, a single colony thereof was cultured in 3 ml of LB broth (LPSS) containing ampicillin for 12 hours or more, and 50˜100 μl of the cultured solution was further cultured until absorbance (OD600) reaches 0.5 to 1. Then, the obtained cultured solution was diluted with LB broth to adjust absorbance (OD600) to 0.5, and was diluted again 5 times by a factor of one tenth with LB broth.
LB (25 g/L), Bacto agar (12 g/L), ampicillin (100 μg/ml) and various herbicides (0˜200 μM) were mixed, to prepare herbicide-containing media.
Ten microliters of the diluted solution were dropped on the herbicide-containing media, and the media were incubated with light for 16-20 hours at 37° C. The growth level and PPO-inhibiting herbicide tolerance of BT3 transformed with each gene were evaluated.
The herbicide tolerance was evaluated relatively compared to CyPPO wild type, and shown in following Tables 8 to 11 and FIGS. 11 to 29:
In the Tables 8 to 11, the level of herbicide tolerance of the wild type was represented by “−”, and the level of herbicide tolerance was graduated by representing the equal level of tolerance by “−”, and if higher, adding “+” to the max “+++++”.
FIGS. 11 to 19 (wild type and variants of CyPPO10) and FIGS. 20 to 29 (wild type and variants of CyPPO13) show the results of culturing E. coli transformed with CyPPO genes (wild type and variant type), and the concentration described on the top is concentration of herbicide treated. Six columns of each concentration were sequentially diluted 5 times by a factor of one tenth with the E. coli culture solution to the right, and the most left column is the result of E. coli culture solution OD600=0.5.

[4] = system: CyPPO13; assay: PPO enzyme activity and IC50 by herbicides, CyPPO13 wild type and variants (MBP-PPO fusion); format: biochemical, Synechococcus sp. JA-3-3Ab; conditions: PPO enzyme activity of CyPPO13 protein, wild type = 100
Summary of the method: as §1

Molecule | Seed germination in media containing herbicides [1] | Activity (%) [2] [%] | Activity (%) [4] [%] | also measured
B1 | germinated | 93 |  | 
B2 | germinated | 98 |  | 
B3 |  | 100 |  | Herbicide tolerance level, Acifluorfen (up to 200 μM) [3]: +++; Herbicide tolerance level, Fomesafen (up to 200 μM) [3]: ++++; Herbicide tolerance level, Pentoxazone (up to 200 μM) [3]: ++++; Herbicide tolerance level, Pyraclonil (up to 200 μM) [3]: +++; Herbicide tolerance level, Pyraflufen-ethyl (up to 200 μM) [3]: +; Herbicide tolerance level, Saflufenacil (up to 200 μM) [3]: +; Herbicide tolerance level, Tiafenacil (up to 200 μM) [3]: ++
B4 | germinated |  |  | 
B5 | germinated | 59 |  | 
B6 | germinated | 67 |  | 
B7 | germinated |  | 83 | 
B8 | germinated |  | 66 | 
B9 | germinated |  | 98 | 
B10 | germinated |  | 86 | 
B11 | germinated |  | 98 | 
B12 | germinated |  | 68 | 
